# In IntAct's records for PubMed 17174311:
# B1: Serine/threonine-protein kinase PLK4 (Mus musculus), Q64702 (parent)
# chain: MAACIGERIEDFKVGNLLGKGSFAGVYRAESIHTGLEVAIKMIDKKAMYKAGMVQRVQNEVKIHCQLKHPSVLELYNYFEDNNYVYLVLEMCHNGEMNRYLKNRMKPFSEREARHFMHQIITGMLYLHSHGILHRDLTLSNILLTRNMNIKIADFGLATQLNMPHEKHYTLCGTPNYISPEIATRSAHGLESDIWSLGCMFYTLLIGRPPFDTDTVKNTLNKVVLADYEMPAFLSREAQDLIHQLLRRNPADRLSLSSVLDHPFMSRNPSPKSKDVGTVEDSMDSGHATLSTTITASSGTSLSGSLLDRRLLVGQPLPNKITVFQKNKNSSDFSSGDGSNFCTQWGNPEQEANSRGRGRVIEDAEERPHSRYLRRAHSSDRASPSNQSRAKTYSVERCHSVEMLSKPRRSLDENQHSSNHHCLGKTPFPFADQTPQMEMVQQWFGNLQMNAHLGETNEHHTVSPNRDFQDYPDLQDTLRNAWTDTRASKNADTSANVHAVKQLSAMKYMSAHHHKPEVMPQEPGLHPHSEQSKNRSMESTLGYQKPTLRSITSPLIAHRLKPIRQKTKKAVVSILDSEEVCVELLRECASEGYVKEVLQISSDGTMITVYYPNDGRGFPLADRPPLPTDNISRYSFDNLPEKYWRKYQYASRFIQLVRSKTPKITYFTRYAKCILMENSPGADFEVWFYDGAKIHKTENLIHIIEKTGISYNLKNENEVTSLKEEVKVYMDHANEGHRICLSLESVISEEEKRSRGSSFFPIIVGRKPGNTSSPKALSAPPVDPSCCKGEQASASRLSVNSAAFPTQSPGLSPSTVTVEGLGHTATATGTGVSSSLPKSAQLLKSVFVKNVGWATQLTSGAVWVQFNDGSQLVVQAGVSSISYTSPDGQTTRYGENEKLPEYIKQKLQCLSSILLMFSNPTPNFQ
# Variants of: B1
# Settings: with MBP
row,effect of a mutation on the interaction,Variant
1,disrupting interaction,D154N

# Variants of: B1
# Settings: with ccnb3_human CCNB3, Q8WWL7
# ccnb3_human CCNB3, Q8WWL7, sequence (Q8WWL7 whole entry): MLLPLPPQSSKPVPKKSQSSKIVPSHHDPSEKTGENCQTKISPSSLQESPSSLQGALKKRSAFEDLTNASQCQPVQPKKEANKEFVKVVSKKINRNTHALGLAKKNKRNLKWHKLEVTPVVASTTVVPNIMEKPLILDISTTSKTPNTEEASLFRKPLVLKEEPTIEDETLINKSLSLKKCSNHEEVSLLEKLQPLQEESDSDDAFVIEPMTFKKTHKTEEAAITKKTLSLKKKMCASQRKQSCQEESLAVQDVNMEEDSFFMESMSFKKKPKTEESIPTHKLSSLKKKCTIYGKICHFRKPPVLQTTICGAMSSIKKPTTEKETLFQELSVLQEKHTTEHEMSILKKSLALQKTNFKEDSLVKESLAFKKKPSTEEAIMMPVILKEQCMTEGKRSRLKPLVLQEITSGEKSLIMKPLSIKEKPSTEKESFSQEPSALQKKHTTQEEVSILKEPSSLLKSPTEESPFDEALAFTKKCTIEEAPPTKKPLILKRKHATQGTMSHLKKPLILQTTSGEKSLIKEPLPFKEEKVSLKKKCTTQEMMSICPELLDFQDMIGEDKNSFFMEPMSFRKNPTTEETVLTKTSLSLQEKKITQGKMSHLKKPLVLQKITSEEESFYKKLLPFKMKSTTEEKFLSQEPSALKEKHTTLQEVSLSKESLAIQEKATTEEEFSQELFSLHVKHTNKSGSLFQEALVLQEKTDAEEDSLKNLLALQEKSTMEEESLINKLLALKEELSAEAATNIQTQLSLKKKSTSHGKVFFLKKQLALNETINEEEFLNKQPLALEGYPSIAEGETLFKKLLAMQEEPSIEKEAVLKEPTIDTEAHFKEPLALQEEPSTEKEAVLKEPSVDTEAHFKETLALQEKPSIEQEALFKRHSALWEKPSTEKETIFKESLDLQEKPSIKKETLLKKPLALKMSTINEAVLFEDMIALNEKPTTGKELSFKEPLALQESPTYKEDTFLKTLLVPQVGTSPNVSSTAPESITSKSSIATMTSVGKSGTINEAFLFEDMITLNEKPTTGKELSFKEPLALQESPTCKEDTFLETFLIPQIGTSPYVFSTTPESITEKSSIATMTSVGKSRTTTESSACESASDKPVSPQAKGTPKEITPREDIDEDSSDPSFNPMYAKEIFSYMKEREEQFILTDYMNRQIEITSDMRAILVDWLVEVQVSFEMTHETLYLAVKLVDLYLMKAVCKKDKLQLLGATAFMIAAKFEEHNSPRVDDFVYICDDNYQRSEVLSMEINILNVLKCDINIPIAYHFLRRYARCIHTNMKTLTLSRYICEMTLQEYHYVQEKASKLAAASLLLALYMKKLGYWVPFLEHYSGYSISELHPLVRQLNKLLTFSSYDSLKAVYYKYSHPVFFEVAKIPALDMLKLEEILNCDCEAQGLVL
row,effect of a mutation on the interaction,Variant
1,disrupting interaction,D154N
